Test results taken from patent US7579150B1, “Mobile RNA acts as a signal to regulate plant growth and development” (Iowa State University Research Foundation, Inc., priority 2004, dated 2009).
Entries after “also recorded” stand apart in the source; their conditions may differ.

Legend:
[1] = system: POTH1 overexpression lines; test: Exogenous GA3 application to POTH1 overexpression lines; assay type: in vivo, Solanum tuberosum; details: shoot apex sprayed with 10 μM GA3 in 0.002% (v/v) ethanol
Source text: Many of the traits of the phenotypes observed in POTH1 overexpression lines were similar to GA-deficient mutants. These similarities included decreased plant height, decreased internode length, and darker green coloration of the leaves (van den Berg et al., “Morphology and [^14C]Gibberellin A12 Metabolism in Wild-Type and Dwarf Solanum Tuberosum ssp. Andigena Grown Under Long and Short Photoperiods,” J. Plant Physiol. 146:467-473 (1995), which is hereby incorporated by reference in its entirety). Because of this, exogenous GA3 was applied to determine whether the overexpression lines were responsive to GA treatment. The shoot apex of overexpression lines was sprayed to runoff with 10 μM GA3 in 0.002% (v/v) ethanol or with 0.002% (v/v) ethanol alone. […] Palisade and spongy parenchyma organization is partially rescued in leaves from line 15 treated with GA3 (FIG. 5G). The GA3-treated leaf (FIG. 5J) of the severe mutant, line 15, is more similar in morphology to the wild-type leaf (FIG. 5K). Leaflets are more ovate in form rather than the typical mouse-ear shape. Wild-type leaves have a prominent mid-vein (FIG. 5L), whereas the mid-vein (FIG. 5M, arrow) is more prominent in the mutant GA3-treated leaf than in the mutant untreated leaf (FIG. 5N). […]

ga20ox1 promoter = test: Transcription (transfection) assay, pGAOP::GUS reporter in tobacco protoplasts; assay type: cell-based, potato
Source text: The cauliflowermosaic virus (CaMV) 35S promoter in pBI221 (Clontech, Palo Alto, Calif.) was replaced by an enhancer fragment (−832 to −50) of the 35S promoter plus 980 bp of the ga20ox1 promoter to generate the pGAOP::β-glucuronidase (GUS) reporter construct. With this construct, the reporter GUS transcription level is augmented but its transcription may still be affected by the ga20ox1 promoter. A CaMV 35S promoter-driven luciferase (LUC) construct 35S-LUC (obtained from Dr. Takahashi, Dept. of Biological Sciences, Graduate School of Science, Univ. of Tokyo, Japan) was used as an internal control. Effector constructs were also generated by using pBI221 vector as a backbone, with the GUS gene replaced by the full-length cDNAs of either StBEL-05 or POTH1, downstream of the CaMV 35S promoter. Truncated cDNAs that encode the N-terminal protein-binding domains of StBEL-05 or POTH1 were used to generate the dominant negative constructs, StBEL5ΔC295 and POTH1ΔC122, respectively. The reporter construct with the mutated promoter was generated by site-directed PCR mutagenesis with oligos 5′-CTATTTGACTTC*ACACGGTTATTT-3′ (SEQ ID NO:23) and 5′-AAATAACCGTGTG*AAGTCAAATAG-3′ (SEQ ID NO:24).
Fully expanded leaves from three- to four-week-old tobacco plants were excised and placed in K3 basal media (Kao et al., “Nutritional Requirements for Growth of Vicia hajastana Cells and Protoplasts at a Very Low Density in Liquid Media,” Planta 126:105-110 (1975), which is hereby incorporated by reference in its entirety) supplemented with 0.4 M sucrose, 0.25% (w-v) cellulases (Karlan Research Products, Santa Rosa, CA), and 0.05% (w-v) macerases (Calbiochem, La Jolla, Calif.) and incubated for overnight at 28° C. After incubation, the liberated protoplasts were filtered through sterile cheesecloth into a Babcock bottle, and centrifuged for 10 minutes at 1000 rpm. Protoplasts were collected from the bottleneck area and washed once in K3 media with 0.4 M sucrose and resuspended in K3 media containing 0.4 M glucose to a final concentration of 4×10^6 protoplasts per milliliter. […]
Luciferase assays were performed by injecting 100-μL luciferase substrate (Promega, Madison, Wis.) into 20 μL of extract and measuring the emitted photons for 15 seconds in a TD-20 luminometer (Turner Designs, Sunnyvale, Calif.). […] A fluorescence multiwell plate reader, Fluoroskan II (MTX labs, Vienna, Va.), was used to measure GUS activity at 365 nm (excitation) and 455 nm (emission). Each sample was measured three times for both LUC and GUS activity. Relative GUS-LUC activity was calculated by dividing the ratio of GUS activity to LUC activity from different effectors with the ratio from reporter plasmid alone. Relative activities calculated from three transfection replications were presented as a mean±SE.

CaMV 35S promoter = test: Transcription (transfection) assay, 35S GUS construct in tobacco protoplasts; assay type: cell-based, cauliflower mosaic virus
[2] = system: ga20ox1 promoter regions P1, P2, P3 and first intron; test: Gel retardation (gel mobility shift) assay; assay type: binding, potato; details: recombinant protein from E. coli
Source text: The first intron with partial flanking exon sequence (450 bp) of potato ga20ox1 and its promoter (981 bp, provided by Dr. Salomé Prat, CSIC Cantoblanco Campus, Univ. of Madrid, Spain) were used for gel mobility shift assays. Polymerase chain reaction (PCR) was used to amplify three regions of the promoter: −981 to 636 (P1), −660 to 307 (P2), and −331 to 0 (P3). About a 25-bp overlap was maintained between P1 and P2 or P2 and P3 in the chance that the protein-binding site would span the overlapped region. The first intron of this gene was amplified from potato genomic DNA by using PCR and the oligos 5′-[…]-3′ (SEQ ID NO:21) and 5′-[…]-3′ (SEQ ID NO:22) as primers. These primers were designed based on the site of the first intron of the tobacco GA20 oxidase gene Ntc12. The four fragments were purified on a 1.4% agarose gel and labeled with α^32P-dATP using Klenow fragment. […]
In the competition assays, unlabeled double-stranded DNA fragments (10×, 25×, 50×, 100×) were incubated with the recombinant protein before the addition of the radioactive probe. The dissociation rates were determined by adding 500-fold more cold DNA fragments to the DNA-binding reactions that were being incubated on ice, and loaded onto the running gel every 10 minutes. […]

POTH1 = test: Yeast two-hybrid interaction with POTH1 (nutritional selection, beta-galactosidase); assay type: cell-based, potato; details: yeast strain AH109, nutritional markers and lacZ
Source text: The Matchmaker two-hybrid system (Clontech, CA) was used for the yeast two-hybrid screen. Yeast transformation and plasmid rescue into DH5-a E. coli cells were according to the manufacturer's instructions. Full-length POTH1 was cloned into the pBridge (Clontech, CA) vector and used as bait to screen the potato (S. tuberosum ‘Desireé’) stolon cDNA library in pAD-GAL4-2.1 (Stratagene, Calif.). Positive interactions were confirmed by cotransforming yeast strain AH109 with each purified pAD plasmid and pBridge: POTH1 and plating on -leucine/-tryptophan (transformation control) and -leucine/-tryptophan/-histidine/-adenine (selection) nutrient medium. Induction of the AH109 reporter gene, lacZ, was measured with a yeast β-galactosidase assay kit (Pierce Chemicals). β-galactosidase activity (FIG. 9B) was determined from a known density of yeast cells and calculated as 1000×OD420/time of color reaction (minutes)×volume of yeast culture (ml)×OD600.
The StBEL-05 deletion constructs were amplified by PCR, then cloned into the vector, pGAD, in-frame with the GAL4 activation domain. POTH1 deletion constructs were amplified by PCR, and cloned into pBridge (Clontech) in-frame with the GAL4 binding domain. Sequencing of selected cDNAs and constructs was performed at the Iowa State University DNA Facility. For deletion analysis, modified constructs of POTH1 were cloned into the pBridge vector for fusion with the DNA-binding domain of GAL4 (FIG. 10A). For StBEL-05, constructs were cloned into the pGAD vector for fusion with the activating domain of GAL4 (FIG. 10B). Deletion constructs were made from both the amino and carboxy termini. These mutants were then tested for interaction in the yeast two-hybrid system by cotransforming into yeast strain AH109 with the corresponding full-length partner (StBEL-05 in pGAL4 or POTH1 in pBridge). All constructs were sequenced to verify that they were in-frame. Positive interactions were verified for lacZ induction by using a β-galactosidase assay (Pierce Chemical Company). For POTH1, seven deletion constructs were tested (FIG. 10A). For the BEL TFs, a fusion construct of StBEL-05 (653 aa of StBEL-05 sequence) and nine deletion constructs were tested (FIG. 10B).

**Q.** `C=C1C[C@]23C[C@@]1(O)CC[C@H]2[C@@]12C=C[C@H](O)[C@@](C)(C(=O)O1)[C@H]2[C@@H]3C(=O)O` [GA3] was tested. Which “effect on leaf morphology of POTH1 overexpression lines” value [1] did it give?
**A.** The value was “partially rescued the leaf morphology of both severe and intermediate phenotypes; also recorded: partial reversal of the leaf phenotype”.

**Q.** What about the “effect on plant height / dwarf phenotype of POTH1 overexpression lines” value [1] of the same molecule?
**A.** Its value is “caused plants with a severe phenotype to increase in height; also recorded: completely rescued the dwarf phenotype”.

B1: POTH1: KNOX transcription factor of potato, SEQ ID NO:17, 345 aa (protein, listed as Solanum tuberosum)
chain: MDDEMYGFHSTRDDYADKALMSPENLMMQTEYNNFHNYTNSSILTSNPMMFGSDDIQLSSEQTNSFSTMTLQNNDNIYQIRSGNCGGGSGSGGSSKDHNDNNNNNEDYDEDGSNVIKAKIVSHPYYPKLLNAYIDCQKVGAPAGIVNLLEEIRQQTDFRKPNATSICIGADPELDEFMETYCDILLKYKSDLSRPFDEATTFLNKIEMQLGNLCKDDGGVSSDEELSCGEADASMRSEDNELKDRLLRKFGSHLSSLKLEFSKKKKKGKLPKEARQMLLAWWDDHFRWPYPTEADKNSLAESTGLDPKQINNWFINQRKRHWKPSENMQLAVMDNLSSQFFSSDD
**Q.** With B1 as the molecule, how does the “decrease of relative GUS-LUC activity of the pGAOP::GUS reporter” value (ga20ox1 promoter; co-transfected effector, tobacco protoplasts) read?
**A.** Its value is “more than half”.

**Q.** What about the “repression of ga20ox1 promoter with point mutation in the binding site” value (ga20ox1 promoter; mutated reporter construct) of the same molecule?
**A.** Its value is “no detectable repression of promoter activity”.

**Q.** What about the “effect on activity of the CaMV 35S promoter” value (CaMV 35S promoter) of the same molecule?
**A.** The value was “Neither StBEL-05 nor POTH1 showed any effect”.

**Q.** What about the “binding to ga20ox1 regulatory regions” value [2] of the same molecule?
**A.** The value was “only formed a complex with P1”.

B2: pAD5-9: StBEL-05 deletion construct, aa 1 through 315 (protein)
chain: MNPNNYMQGYTTSDTQQQQQLLFLNSSPAASNALCHANIQHAPLQQQHFVGVPLPAVSLHDQINHHGLLQRMWNNQDQSQQVIVPSSTGVSATSCGGITTDLASQLAFQRPIPTPQHRQQQQQQGGLSLSLSPQLQQQISFNNNISSSSPRTNNVTIRGTLDGSSSNMVLGSKYLKAAQELLDEVVNIVGKSIKGDDQKKDNSMNKESMPLASDVNTNSSGGGESSSRQKNEVAVELTTAQRQELQMKKAKLLAMLEEVEQRYRQYHHQMQIIVLSFEQVAGIGSAKSYTQLALHAISKQFRCLKDAIAEQVKAT
modifications: left off: large carriers
**Q.** For B2, which “interaction with POTH1” value (POTH1) is on record?
**A.** Its value is “interaction with POTH1”.
